Consider two molecules from patent publication US20180031566A1 (VENTANA MEDICAL SYSTEMS, published 2018).

In experiment [1] the target is T1, recombinant protein for uPAR-Like domain 1 of C4.4a (amino acids 31-116) (human, UniProt O95274 31-116).
T1 construct: Recombinant domain used in ELISA
T1 sequence: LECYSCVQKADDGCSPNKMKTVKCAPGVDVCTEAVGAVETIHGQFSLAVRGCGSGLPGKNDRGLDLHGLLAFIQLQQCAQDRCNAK
Briefly: ELISA with recombinant domain proteins.

The target of experiment [2] is T2, recombinant protein for uPAR-like domain 2 of C4.4a (amino acids 139-224) (human, UniProt O95274 139-224).
T2 construct: Recombinant domain used in ELISA
T2 sequence: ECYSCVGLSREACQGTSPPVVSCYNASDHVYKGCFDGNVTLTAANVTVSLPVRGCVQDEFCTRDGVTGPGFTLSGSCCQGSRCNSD
Briefly: ELISA with recombinant domain proteins.

B1: anti-C4.4a antibody clone S20H1L1 (antibody, V domains shown)
VH: QEQLEESGGGLVKPGGTLTLTCTASGFSLISTYYICWVRQAPGKGLEWIGCIPLSHSVSWYANWVNGRFSISKTSSTTVTLKMASLTDADTATYFCGRGSSGWGVDSKLWGPGTLVTVSS
VL: AVLTQTPSPVSASVGGTVTINCQSSPSVASGYLSWFQQKPGQPPKLLIYRASTLVSGVPSRFKGSGSGTHFTLTISDVQCDDAATYYCAGAYSSRSDTTFGGGTEVVVK
notes: Rabbit monoclonal antibody; also called SP245 (a S20H1L1 clone)
With B1, the binding result in experiment [1] is on record as “binds”.

B2: anti-C4.4a antibody clone S42H9L5 (antibody, V domains shown)
VH: QSLEESGGRLVKPDETLTLTCTVSGFSLNTVAISWVRQAPGKGLEWIGFIHPTVNTYYARWAKGRFTISRASSTTVDLKVTSLTFEDAATYFCVRGNAHYDIWGPGTLVTVSL
VL: AFELTQTPSLVSAAVGGTVTISCQSSQSVYSDNYLAWYQQKPGQRPKLLIYKASDLASGVPSRFKGSGSGTEFTLTISDLECADAATYYCQSYYGVSSDSNAFGGGTEVVVK
notes: Rabbit monoclonal antibody; also called SP246 (a S42H9L5 clone)
Regarding B2, the binding result in experiment [2] was “binds”.
